This test has as its target T1, recombinant NS1 protein from Zika virus MR766 (Zika virus MR766 (Rhesus/1947/Uganda)).
T1 construct: also called MR766 NS1; NS1 from MR766; source: Expi293 cells transfected with pCAGGS-MR766-NS1, purified from the supernatant (Ni-NTA)
Briefly: ELISA; plates coated with recombinant ZIKV NS1 at 2 μg per mL in pH 9.41 carbonate buffer overnight at 4 °C; mAbs from 10 μg per mL, serially diluted 3-fold, 2 h at room temperature; detected with HRP-conjugated goat anti-human IgG. The conditions noted are these: both partners purified. (In an ELISA, binding on a coated surface is turned into a signal by an enzyme label.)

B1: AA12 LALAPG (antibody, V domains shown)
VH: EVQLVESGGGLIQPGGSLRLSCAASGFTVSSNYMSWVRQAPGKGLEWVSVIYSGGSTYYADSVKGRFTISRDNSKNTLYLQMNSLRAEDTAVYYCARDRRGFDYWGQGTMVTVSS
VL: DIQMTQSPLSLSASVGDRVTITCRTSQSISSYLNWYQQKPGKAPKLLIYAASSLQSGVPSRFSGSGSGTDFTLTISSLQPEDFATYYCQQTYSTPLTFGGGTKVEIK
notes: also called mutated form of AA12; mutant AA12 mAb
For the molecule B1, the binding result was “binds”.

The values are drawn from paper PMC6212565, “Human antibodies targeting Zika virus NS1 provide protection against disease in a mouse model” (Nature Communications, 2018).
